Results: patent US20060257938A1, “Method of screening for drugs that block ligand binding to a lipid binding protein” (priority 2005, published 2006)
“And” between values parts separate entries of the source, which are not always exact repeats. Equal values may be shown once.

Columns and labels:
Assay type in all cases: binding
[1] = Probe fluorescence ratio response to linoleic acid relative to ADIFAB2; settings: response relative to ADIFAB2
Procedure, shortened: (§1)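 Each fatty acid's response was expressed relative to ADIFAB2, the rI-FABP-L72A probe, as ΔR/ΔRreference. ΔR is the change in the background-corrected two-wavelength intensity ratio R=Fλ1/Fλ2 from its analyte-free baseline R0. Emission was read near about 420-480 nm for unbound and about 495-580 nm for FFA-bound probe.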

[2] = Probe fluorescence ratio response to arachidonic acid relative to ADIFAB2; settings: arachidonic acid; response relative to ADIFAB2
Procedure, shortened: as §1

[3] = Probe fluorescence ratio response to palmitic acid relative to ADIFAB2; settings: response relative to ADIFAB2
Procedure, shortened: as §1

[4] = Probe fluorescence ratio response to oleic acid relative to ADIFAB2; settings: response relative to ADIFAB2
Procedure, shortened: as §1

[5] = Probe fluorescence ratio response to linolenic acid relative to ADIFAB2; settings: response relative to ADIFAB2
Procedure, shortened: as §1

B1: 115E1, 72A (protein, listed as Rattus norvegicus)
chain: AFDGTWKVDRNENYEKFMEKMGINVVKRKLGAHDNLKLTITQEGNKFTVKESSNFRNIDVVFELGVDFAYSAADGTELTGTWTMEGNKLVGKFKRVDNGKELIAVREISGNELIETYTYEGVEAKRIFKKE
modifications: PEPTIDE (1)...(131) wild-type rat intestinal fatty acid binding protein
- DR/DR LA [1]: 0.15
- DR/DR AA [2]: 0.12
- DR/DR PA [3]: 0.08
- DR/DR OA [4]: 0.10
- DR/DR LNA [5]: 0.10

B2: 115R1, 72A (protein, listed as Rattus norvegicus)
chain: AFDGTWKVDRNENYEKFMEKMGINVVKRKLGAHDNLKLTITQEGNKFTVKESSNFRNIDVVFELGVDFAYSAADGTELTGTWTMEGNKLVGKFKRVDNGKELIAVREISGNELIRTYTYEGVEAKRIFKKE
modifications: PEPTIDE (1)...(131) wild-type rat intestinal fatty acid binding protein
- DR/DR LA [1]: 1.45
- DR/DR AA [2]: 1.40
- DR/DR PA [3]: 0.70
- DR/DR OA [4]: 1.36
- DR/DR LNA [5]: 1.43

B3: 117C, 72A (protein, listed as Rattus norvegicus)
chain: AFDGTWKVDRNENYEKFMEKMGINVVKRKLGAHDNLKLTITQEGNKFTVKESSNFRNIDVVFELGVDFAYSAADGTELTGTWTMEGNKLVGKFKRVDNGKELIAVREISGNELIQTCTYEGVEAKRIFKKE
modifications: PEPTIDE (1)...(131) wild-type rat intestinal fatty acid binding protein
- DR/DR LA [1]: −0.19
- DR/DR AA [2]: −0.17
- DR/DR PA [3]: −0.12
- DR/DR OA [4]: −0.24
- DR/DR LNA [5]: −0.13

B4: 115I3, 72A (protein, listed as Rattus norvegicus)
chain: AFDGTWKVDRNENYEKFMEKMGINVVKRKLGAHDNLKLTITQEGNKFTVKESSNFRNIDVVFELGVDFAYSAADGTELTGTWTMEGNKLVGKFKRVDNGKELIAVREISGNELIITYTYEGVEAKRIFKKE
modifications: PEPTIDE (1)...(131) wild-type rat intestinal fatty acid binding protein
- DR/DR LA [1]: 0.81
- DR/DR AA [2]: 0.87
- DR/DR PA [3]: 0.84
- DR/DR OA [4]: 0.88
- DR/DR LNA [5]: 0.80

B5: 115Y1, 72A (protein, listed as Rattus norvegicus)
chain: AFDGTWKVDRNENYEKFMEKMGINVVKRKLGAHDNLKLTITQEGNKFTVKESSNFRNIDVVFELGVDFAYSAADGTELTGTWTMEGNKLVGKFKRVDNGKELIAVREISGNELIYTYTYEGVEAKRIFKKE
modifications: PEPTIDE (1)...(131) wild-type rat intestinal fatty acid binding protein
- DR/DR LA [1]: 1.38
- DR/DR AA [2]: 1.42
- DR/DR PA [3]: 0.73
- DR/DR OA [4]: 1.23
- DR/DR LNA [5]: 1.27

B6: 115P1, 72A (protein, listed as Rattus norvegicus)
chain: AFDGTWKVDRNENYEKFMEKMGINVVKRKLGAHDNLKLTITQEGNKFTVKESSNFRNIDVVFELGVDFAYSAADGTELTGTWTMEGNKLVGKFKRVDNGKELIAVREISGNELIPTYTYEGVEAKRIFKKE
modifications: PEPTIDE (1)...(131) wild-type rat intestinal fatty acid binding protein
- DR/DR LA [1]: 1.37
- DR/DR AA [2]: −0.17
- DR/DR PA [3]: 0.70
- DR/DR OA [4]: 1.26
- DR/DR LNA [5]: 1.35

B7: 115H1, 72A (protein, listed as Rattus norvegicus)
chain: AFDGTWKVDRNENYEKFMEKMGINVVKRKLGAHDNLKLTITQEGNKFTVKESSNFRNIDVVFELGVDFAYSAADGTELTGTWTMEGNKLVGKFKRVDNGKELIAVREISGNELIHTYTYEGVEAKRIFKKE
modifications: PEPTIDE (1)...(131) wild-type rat intestinal fatty acid binding protein
- DR/DR LA [1]: 0.74
- DR/DR AA [2]: 0.89
- DR/DR PA [3]: 0.51
- DR/DR OA [4]: 0.68
- DR/DR LNA [5]: 0.70

B8: 115N2, 72A (protein, listed as Rattus norvegicus)
chain: AFDGTWKVDRNENYEKFMEKMGINVVKRKLGAHDNLKLTITQEGNKFTVKESSNFRNIDVVFELGVDFAYSAADGTELTGTWTMEGNKLVGKFKRVDNGKELIAVREISGNELINTYTYEGVEAKRIFKKE
modifications: PEPTIDE (1)...(131) wild-type rat intestinal fatty acid binding protein
- DR/DR LA [1]: 0.78
- DR/DR AA [2]: 0.92
- DR/DR PA [3]: 0.56
- DR/DR OA [4]: 0.71
- DR/DR LNA [5]: 0.73

B9: 115T3, 72A (protein, listed as Rattus norvegicus)
chain: AFDGTWKVDRNENYEKFMEKMGINVVKRKLGAHDNLKLTITQEGNKFTVKESSNFRNIDVVFELGVDFAYSAADGTELTGTWTMEGNKLVGKFKRVDNGKELIAVREISGNELITTYTYEGVEAKRIFKKE
modifications: PEPTIDE (1)...(131) wild-type rat intestinal fatty acid binding protein
- DR/DR LA [1]: 0.45
- DR/DR AA [2]: 0.57
- DR/DR PA [3]: 0.49
- DR/DR OA [4]: 0.46
- DR/DR LNA [5]: 0.54

B10: 115F1, 72A (protein, listed as Rattus norvegicus)
chain: AFDGTWKVDRNENYEKFMEKMGINVVKRKLGAHDNLKLTITQEGNKFTVKESSNFRNIDVVFELGVDFAYSAADGTELTGTWTMEGNKLVGKFKRVDNGKELIAVREISGNELIFTYTYEGVEAKRIFKKE
modifications: PEPTIDE (1)...(131) wild-type rat intestinal fatty acid binding protein
- DR/DR LA [1]: 1.46
- DR/DR AA [2]: 1.36
- DR/DR PA [3]: 0.77
- DR/DR OA [4]: 1.41
- DR/DR LNA [5]: 1.49

B11: 117D, 72A (protein, listed as Rattus norvegicus)
chain: AFDGTWKVDRNENYEKFMEKMGINVVKRKLGAHDNLKLTITQEGNKFTVKESSNFRNIDVVFELGVDFAYSAADGTELTGTWTMEGNKLVGKFKRVDNGKELIAVREISGNELIQTDTYEGVEAKRIFKKE
modifications: PEPTIDE (1)...(131) wild-type rat intestinal fatty acid binding protein
- DR/DR LA [1]: 0.44 and 0.380
- DR/DR AA [2]: 0.41 and 0.352
- DR/DR PA [3]: 0.17 and 0.142
- DR/DR OA [4]: 0.35 and 0.294
- DR/DR LNA [5]: 0.44 and 0.407

B12: 115K3, 72A (protein, listed as Rattus norvegicus)
chain: AFDGTWKVDRNENYEKFMEKMGINVVKRKLGAHDNLKLTITQEGNKFTVKESSNFRNIDVVFELGVDFAYSAADGTELTGTWTMEGNKLVGKFKRVDNGKELIAVREISGNELIKTYTYEGVEAKRIFKKE
modifications: PEPTIDE (1)...(131) wild-type rat intestinal fatty acid binding protein
- DR/DR LA [1]: 1.23
- DR/DR AA [2]: 1.26
- DR/DR PA [3]: 1.18
- DR/DR OA [4]: 1.25
- DR/DR LNA [5]: 1.32

B13: 117A, 72A (protein, listed as Rattus norvegicus)
chain: AFDGTWKVDRNENYEKFMEKMGINVVKRKLGAHDNLKLTITQEGNKFTVKESSNFRNIDVVFELGVDFAYSAADGTELTGTWTMEGNKLVGKFKRVDNGKELIAVREISGNELIQTATYEGVEAKRIFKKE
modifications: PEPTIDE (1)...(131) wild-type rat intestinal fatty acid binding protein
- DR/DR LA [1]: 1.01 and 1.045
- DR/DR AA [2]: 1.27 and 1.332
- DR/DR PA [3]: 0.32 and 0.331
- DR/DR OA [4]: 0.93 and 0.947
- DR/DR LNA [5]: 0.62 and 0.631

B14: 115S1, 72A (protein, listed as Rattus norvegicus)
chain: AFDGTWKVDRNENYEKFMEKMGINVVKRKLGAHDNLKLTITQEGNKFTVKESSNFRNIDVVFELGVDFAYSAADGTELTGTWTMEGNKLVGKFKRVDNGKELIAVREISGNELISTYTYEGVEAKRIFKKE
modifications: PEPTIDE (1)...(131) wild-type rat intestinal fatty acid binding protein
- DR/DR LA [1]: 1.51
- DR/DR AA [2]: 1.55
- DR/DR PA [3]: 0.77
- DR/DR OA [4]: 1.41
- DR/DR LNA [5]: 1.51

B15: 115L3, 72A (protein, listed as Rattus norvegicus)
chain: AFDGTWKVDRNENYEKFMEKMGINVVKRKLGAHDNLKLTITQEGNKFTVKESSNFRNIDVVFELGVDFAYSAADGTELTGTWTMEGNKLVGKFKRVDNGKELIAVREISGNELILTYTYEGVEAKRIFKKE
modifications: PEPTIDE (1)...(131) wild-type rat intestinal fatty acid binding protein
- DR/DR LA [1]: 1.24
- DR/DR AA [2]: 1.26
- DR/DR PA [3]: 1.15
- DR/DR OA [4]: 1.25
- DR/DR LNA [5]: 1.29

B16: 115V2, 72A (protein, listed as Rattus norvegicus)
chain: AFDGTWKVDRNENYEKFMEKMGINVVKRKLGAHDNLKLTITQEGNKFTVKESSNFRNIDVVFELGVDFAYSAADGTELTGTWTMEGNKLVGKFKRVDNGKELIAVREISGNELIVTYTYEGVEAKRIFKKE
modifications: PEPTIDE (1)...(131) wild-type rat intestinal fatty acid binding protein
- DR/DR LA [1]: 0.87
- DR/DR AA [2]: 0.84
- DR/DR PA [3]: 0.85
- DR/DR OA [4]: 0.91
- DR/DR LNA [5]: 0.93

B17: 102A, 72A (protein, listed as Rattus norvegicus)
chain: AFDGTWKVDRNENYEKFMEKMGINVVKRKLGAHDNLKLTITQEGNKFTVKESSNFRNIDVVFELGVDFAYSAADGTELTGTWTMEGNKLVGKFKRVDNGKEAIAVREISGNELIQTYTYEGVEAKRIFKKE
modifications: PEPTIDE (1)...(131) wild-type rat intestinal fatty acid binding protein
- DR/DR LA [1]: 0.35
- DR/DR AA [2]: 0.45
- DR/DR PA [3]: 0.20
- DR/DR OA [4]: 0.52
- DR/DR LNA [5]: 0.44
